Laboratory results from article doi:10.1101/2025.08.27.672771 (bioRxiv, 2025).

Biological target: the molecule itself
Assay: SEC

B1: human TRPC3 (hTRPC3) channel, GFP-MBP-tagged (natural protein, UniProt Q13507 86-921, looked up)
chain: MREKGRRQAVRGPAFMFNDRGTSLTAEEERFLDAAEYGNIPVVRKMLEESKTLNVNCVDYMGQNALQLAVGNEHLEVTELLLKKENLARIGDALLLAISKGYVRIVEAILNHPGFAASKRLTLSPCEQELQDDDFYAYDEDGTRFSPDITPIILAAHCQKYEVVHMLLMKGARIERPHDYFCKCGDCMEKQRHDSFSHSRSRINAYKGLASPAYLSLSSEDPVLTALELSNELAKLANIEKEFKNDYRKLSMQCKDFVVGVLDLCRDSEEVEAILNGDLESAEPLEVHRHKASLSRVKLAIKYEVKKFVAHPNCQQQLLTIWYENLSGLREQTIAIKCLVVLVVALGLPFLAIGYWIAPCSRLGKILRSPFMKFVAHAASFIIFLGLLVFNASDRFEGITTLPNITVTDYPKQIFRVKTTQFTWTEMLIMVWVLGMMWSECKELWLEGPREYILQLWNVLDFGMLSIFIAAFTARFLAFLQATKAQQYVDSYVQESDLSEVTLPPEIQYFTYARDKWLPSDPQIISEGLYAIAVVLSFSRIAYILPANESFGPLQISLGRTVKDIFKFMVLFIMVFFAFMIGMFILYSYYLGAKVNAAFTTVEESFKTLFWSIFGLSEVTSVVLKYDHKFIENIGYVLYGIYNVTMVVVLLNMLIAMINSSYQEIEDDSDVEWKFARSKLWLSYFDDGKTLPPPFSLVPSPKSFVYFIMRIVNFPKCRRRRLQKDIEMGMGNSKSRLNLFTQSNSRVFESHSFNSILNQPTRYQQIMKRLIKRYVLKAQVDKENDEVNEGELKEIKQDISSLRYELLEDKSQATEELAILIHKLSEKLNPSMLRCE
For B1, the “stoichiometry N” value was 4.
